Data: patent publication US20120064547A1 (PROBIODRUG, published 2012)
Where no end group is shown, it is not given here. Side-chain parts run from the residue outwards. [ ]: non-standard residue; d: D form. SMPH = maleimide crosslinker coupling C-terminal Cys to BSA; pGlu = O=C1CC[C@@H](C(=O)O)N1

Experiments:
[1] = target: MCP-1 (human, UniProt P13500 24-99, limits assumed, N-terminal pyroglutamate (pGlu peptide)); experiment: SPR (Biacore 3000), peptide on CM5 chip, antibody 25 µg/ml
[2] = target: T1, Neurotensin (human, UniProt P30990 151-163, N-terminal pyroglutamate (pGlu peptide)); experiment: as above
T1 construct: Whole peptide or N-terminal region

[3] = target: T2, Gonadoliberin (human, UniProt P01148 24-33, N-terminal pyroglutamate (pGlu peptide)); experiment: as above
T2 construct: Whole peptide or N-terminal region
T2 peptide (looked up): QHWSYGLRPG

[4] = target: T3, MCP-2 (human, UniProt P80075 24-99, limits assumed, N-terminal pyroglutamate (pGlu peptide)); experiment: as above
T3 construct: Whole peptide or N-terminal region
T3 sequence (peptide, looked up): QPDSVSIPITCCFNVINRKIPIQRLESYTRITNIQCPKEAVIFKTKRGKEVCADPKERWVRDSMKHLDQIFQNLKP

[5] = target: T4, Big Gastrin (human, UniProt P01350 59-92, limits assumed, N-terminal pyroglutamate (pGlu peptide)); experiment: as above
T4 construct: Whole peptide or N-terminal region
T4 peptide (looked up): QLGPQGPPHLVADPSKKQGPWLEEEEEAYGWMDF

[6] = target: T5, Orexin A (human, UniProt O43612 34-66, limits assumed, N-terminal pyroglutamate (pGlu peptide)); experiment: as above
T5 construct: Whole peptide or N-terminal region
T5 peptide (looked up): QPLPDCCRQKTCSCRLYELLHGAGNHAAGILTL

[7] = target: T6, PepSpot peptide No. 7 FRHDSGYEVHHQK; experiment: PepSpot peptide membrane
T6 construct: Spotted on a PepSpot membrane; also called spot number 7
T6 peptide: FRHDSGYEVHHQK

[8] = target: T7, PepSpot peptide No. 5 EFRHDSGYEVHHQ; experiment: PepSpot peptide membrane
T7 construct: Spotted on a PepSpot membrane; also called spot number 5
T7 peptide: EFRHDSGYEVHHQ

[9] = target: T8, PepSpot peptide No. 6 pEFRHDSGYEVHHQ; experiment: PepSpot peptide membrane
T8 construct: Spotted on a PepSpot membrane; also called spot number 6; the specific Aβ N3pE-x spot
T8 peptide: [pGlu]FRHDSGYEVHHQ

[10] = target: T9, BSA-pGlu-6166 peptide (pGlu-FRHDSGC conjugated to bovine serum albumin); experiment: IgG ELISA, hybridoma supernatant on peptide-BSA coat
T9 construct: also called N3pE-BSA
T9 peptide: [pGlu]FRHDSGC([SMPH-BSA])

[11] = target: N11pE-BSA; experiment: as above
[12] = target: N3E-BSA; experiment: as above
[13] = target: isoDAE-BSA; experiment: as above
[14] = target: T10, Aβ N3pE-40 peptide (N-terminal Glu (position 3 of Aβ) cyclized to pyroglutamate); experiment: SPR Biacore 3000, AβpE3-40 on CM5 chip, bivalent analyte model
T10 construct: Synthetic peptide; also called AβpE3-40; amyloid β N3pE-40

[15] = target: N11E-BSA; experiment: IgG ELISA, hybridoma supernatant on peptide-BSA coat
[16] = target: T10, Aβ N3pE-40 peptide; experiment: SPR (Biacore, CM5 chip with coupled Aβ N3pE-40), overlay of hybridoma supernatants. The sheet carries the label Figure 6, but its content is that of the legend of FIG. 5

| Binder | % cross reactivity (against AβpE3-40) [1] [%] | % cross reactivity (against AβpE3-40) [2] [%] | % cross reactivity (against AβpE3-40) [3] [%] | % cross reactivity (against AβpE3-40) [4] [%] | % cross reactivity (against AβpE3-40) [5] [%] | % cross reactivity (against AβpE3-40) [6] [%] | binding result [7] | binding result [8] | binding result [9] | signal in ELISA (OD) [10] [OD 405 nm] | signal in ELISA (OD) [11] [OD 405 nm] | signal in ELISA (OD) [12] [OD 405 nm] | signal in ELISA (OD) [13] [OD 405 nm] | Kd [14] [nM] | signal in ELISA (OD) [15] [OD 405 nm] | binding result [16] |
| --- | --- | --- | --- | --- | --- | --- | --- | --- | --- | --- | --- | --- | --- | --- | --- | --- |
| Aβ 24-2-3 (monoclonal antibody of hybridoma cell line 24-2-3, DSM ACC 2926) (antibody, V domains shown, Mouse hybridoma IgG; The entries as printed begin with a leader and end with the first residues of the constant region; Heavy chain amplified with primer MHCG2b, light chain with MKC; Tested as supernatant and as purified antibody; also called clone 24-2-3; N3pE antibody clone 24-2-3) VH: QVQLQQSGAELVRPGSSVKISCKASGYIFNNYWINWVKQRPGQGLEWIGQIYPGDGDTNYNGKFKGKATLTADKSSSTAYMQLSSLTSEDSAVYFCAREGYIVYWGQGTLVTVSA VL: not shown | < 1 | < 1 | < 1 | < 1 | < 1 | < 1 | binds | binds | binds | 1.77 | 0.002 | 0.218 | 0.014 | 101 | – | – |
| Aβ 17-4-3 (monoclonal antibody of hybridoma cell line 17-4-3, DSM ACC 2925) (antibody, V domains shown, Mouse hybridoma IgG; The entries as printed begin with a leader and end with the first residues of the constant region; Heavy chain amplified with primer MHCG2b, light chain with MKC; Tested as hybridoma culture supernatant; also called clone 17-4-3; antibody 17-4-3) VH: EVKLVESGGGLVQPGGSRKLSCAASGFTFSDYGMAWVRQAPGKGPEWVAFISNLAYSIYYADTVTGRFTISRENAKNTLYLEMSSLRSEDTAMYYCARYDYDNILDYVMDYWGQGTSVTVSS VL: DVVMTQTPLSLPVSLGDQASISCRSSQSLVHSDGNTYLHWYLQKPGQSPKLLIYKVSNRFSGVPDRFSGSGSGTDFTLKISRVEAEDLGVYFCSQSTHVPPTFGGGTKLEIKR | – | – | – | – | – | – | binds | binds | binds | 1.92 | 0.004 | 0.32 | 0.007 | – | 0.003 | binds |
